For five sequences, binding results are on record in article PMC5308003.

The target in this data set is T1, 6His-OxyR-Like (Magnetospirillum gryphiswaldense MSR-1) (UniProt V6F1S1).
T1 sequence: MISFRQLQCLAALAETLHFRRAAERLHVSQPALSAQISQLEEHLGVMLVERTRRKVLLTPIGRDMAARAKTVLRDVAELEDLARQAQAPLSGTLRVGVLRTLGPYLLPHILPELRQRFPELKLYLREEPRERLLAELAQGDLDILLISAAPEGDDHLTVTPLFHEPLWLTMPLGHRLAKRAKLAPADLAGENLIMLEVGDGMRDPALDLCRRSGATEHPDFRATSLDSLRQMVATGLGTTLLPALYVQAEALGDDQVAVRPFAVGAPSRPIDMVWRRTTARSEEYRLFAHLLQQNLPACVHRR
Briefly: EMSA. The following applies: EMSA: DIG Gel Shift Kit 2nd Gen (Roche) binding buffer with 1 uL poly[d(I-C)], 20 uL, 25 C 30 min, 5% native PAGE in 0.5x TBE; footprinting: 1000 ng labeled …. For orientation: Mobility shift assays separate free from complexed probe on a gel.
On to “GGGCGAAGAATGGACATCGTCGTCTCCATTAGGCTGTTGTCCGTGATTGAGACTATGCCCCCTTCTTTGTGATAATTCTAATCGATATATCTTGAGATATTGATAGTAAATTGTTATCAGTGATCCATGATCAGCTTTCGCCAATTACAATGCCT (double strand) [oxyR-Like promoter EMSA probe]”, for which the binding result is “binds”.
The same measure for “CAGGGCAGGATGATGTGAGTGCGTAGACAGATAGGTAAACCAACCTTCCCTTTTAGGCAAGGCGTTTCGCCGTCAAAAATGCTTATATTGCAATGCAATAATGGCAATTAACTGGATAATAGTTATTTATCAAAACCTAACCAGATGGGCGGGCAACGGGTGGTGCGATGCAGCAATCCTTTTGCCTCATCGGGTTAGCGCCTGACAGGGATATTGGGAGCGGGCAAACACTTGAAAACCCACCCGGCGGACAAAATCGCGCCAACCGGTCCATTTCACAATGCACCCATTCAGAGCAAA (double strand) [pdh promoter EMSA probe]”: “binds”.
The same measure for “CGGCACTTGTTCCATGAACTTCGACCATATCGCTCTCCCATTCAACCAATTGTTAGCCTTGGGCTTGGCGATATTCTAACCGTTCCTCCATTCAACTCATACAGATGTGGTTTAGAAGCTTTTTAATAAATACTTGAGGGTCCGGAAATCATTAGCCGAACCCTCAATAGCCTCAGCTATGCAGGCCGGGGGCTTCATGTCCGGTGCGGGCCACGTATTCGGTGTAGCCGC (double strand) [katG promoter EMSA probe]”: “no binding”.
The same measure for “CTTGATCCCGATAATCTGCTGATCGTGGTGGTCGGCAAGCCGGAAGGGGTCAACGGCACGCCCTAACCCGAAAAGACGGCGGCGGCAAAAATCAACGCCGCCCAGTGATCCGTTTCTCCCGTGACACCGTAGAAGGGTCATAAGGAGAAACGCGATGCCTCGGATCATCAAGATTGTTGCCGGCGCTTTGGCCACCTGTCTGGCGGCGACGGCCCCGGCCAAGGCCAGTGGTGCTGTCTTGGACT (double strand) [bsaA promoter EMSA probe]”: “no binding”; for “TGGGCTGTTGCTTGTCTTATCTTTTTTCATTTCCGCCTCACAGGCTGAATTATCTGAAAAGGAAATAGATGAGGATCAGGACTGGGATGGGAACGCCAACCAGCCAGAGAAGGCCGTATTTCATTTCCTACCTCGCTGTTCTGCCGGTGTGTCATGGGGCAATGGAGCCGTCCTGATACAAGA (double strand) [katE promoter EMSA probe]”: “no binding”.
